In this data set the target is T1, His6-PhoP (Pseudomonas aeruginosa PAO1?) (UniProt Q9I4F9).
T1 sequence: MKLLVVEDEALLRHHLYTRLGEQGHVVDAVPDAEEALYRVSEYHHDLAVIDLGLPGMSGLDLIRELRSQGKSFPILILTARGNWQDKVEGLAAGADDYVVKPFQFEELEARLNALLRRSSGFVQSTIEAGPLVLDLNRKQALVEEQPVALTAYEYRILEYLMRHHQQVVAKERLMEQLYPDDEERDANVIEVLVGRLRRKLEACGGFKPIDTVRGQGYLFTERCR
Nature of the data set: EMSA. Particulars: DIG Gel Shift Kit 2nd Generation (Roche) per manufacturer; 6% native polyacrylamide gel; buffer, salt, pH and temperature not stated. For orientation: A gel shift assay detects complexes by their altered migration in electrophoresis.

In the case of “GAGGATCCCAGGAGTGATATTAGCGATTCCCAGTGCTCCCGCAACCTGCCAGAAAACCCAGCGAAGCTTCTTCGGCAGCCATTTTAGAAAAATATATTCCTTTAATTTCAATAAGTTACTTAAATTCACCGAGCGTTTTTGGCAAACCTCCCGGGCATTTATCTACTTAGGCTCACACGCCGTGTAAGTTAATGCTTACAAGAGCAGACACAAAAAACCCGGCGGATCCTC (double strand) [rsmZ promoter, full length]”, the binding entry is listed as “binds”.

In the case of “GAGGATCCGTGAATGGCCGGATTATAGCCAAGTGGCCGTGGCAACGGCATAGGCCGCGGAAGCGCCGTGCGGCGCCCGCGGCTTCGGGCCCGGTCAGGACTCGCCGCGCTCGCGGGCGATGGCACGGTAGCCGATGTCCTTGCGGTAGAAGCAGCCGTTCCAGCGGATCTTCTCGGCCAGGCGATAGGCCTGTTGCTGGGCGGCGGACACGCTCTCGCCGATGGCGGTGGCACAGAGCACGCGGCCGCCTCGAGTC (double strand) [truncated retS promoter, 255 bp, lacking PhoP box]”, the binding entry is “no binding”.

Values taken from paper PMC3156716.
